Source: US20090214574A1 (AFFIMED, published 2009)

B1: human anti-CD16A scFv 50NI (scFv)
scFv: EVQLVQSGAEVKKPGESLKVSCKASGYTFTSYYMHWVRQAPGQGLEWMGIINPSGGSTSYAQKFQGRVTMTRDTSTSTVYMELSSLRSEDTAVYYCARGSAYYYDFADYWGQGTLVTVSSGSASAPTLKLEEGEFSEARVSYELMQPPSVSVSSGQTASIPCSGDKLEEKYVSWYQQRPGQSPVLVIYQDNKRPSGIPERFSGSNSGNTATLTISGTQAMDEADYYCQVWDNYSVLFGGGTKLTVLGQPKAAPSVTLFPPSAAAGSEQKLISEEDLNSHHHHHH
notes: also called clone 50NI; parental clone
B2: affinity matured anti-CD16A scFv 4-LS21 (scFv)
scFv: EVQLVQSGAEVKKPGESLKVSCKASGYTFTSYYMHWVRQAPGQGLEWMGIINPSGGSTSYAQKFQGRVTMTRDTSTSTVYMELSSLRSEDTAVYYCARGSAYYYDFADYWGQGTLVTVSSGSASAPTLKLEEGEFSEARVQPVLTQPSSVSVAPGQTATISCGGHNIGSKNVHWYQQRPGQSPVLVIYQDNKRPSGIPERFSGSNSGNTATLTISGTQAMDEADYYCQVWDNYSVLFGGGTKLTVLGQPKAAPSVTLFPPSAAAGSEQKLISEEDLNSHHHHHH
notes: IMAC-purified from pSKK2

Assays:
NKp46-Fc [1] = biological target: T1, NKp46-Fc (UniProt O76036 22-258, limits assumed); assay: Western blot on NKp46-Fc
T1 construct: Negative control protein; also called NKp46-Fc control protein; not shown: Fc part, not described
T1 sequence (O76036 22-258 limits assumed): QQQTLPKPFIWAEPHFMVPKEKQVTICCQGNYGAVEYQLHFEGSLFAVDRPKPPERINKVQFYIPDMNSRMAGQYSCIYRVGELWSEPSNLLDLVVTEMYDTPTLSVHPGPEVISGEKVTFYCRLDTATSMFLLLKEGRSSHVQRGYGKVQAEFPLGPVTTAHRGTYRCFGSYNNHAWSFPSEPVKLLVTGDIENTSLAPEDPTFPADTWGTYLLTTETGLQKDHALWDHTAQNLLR
Protocol: For further characterization all of the anti-CD16A scFv were tested for binding in Western Blot on recombinant CD16A-Fc and NKp46-Fc.
The proteins were transferred on a nitrocellulose membrane by electroblotting. After staining with Ponceau S, the membrane was cut into strips of 5 mm width. Each nitrocellulose strip was individually incubated with scFv (4 μg/ml) in PBS, 0.1% tween, 2% skimmed milk. Detection was carried out with the anti-Penta His HRP-conjugate (1 μg/mL) using diaminobenzidine (DAB) as a peroxidase substrate. […] As an additional positive control, a goat anti-human IgG HRP-conjugate (0.16 μg/mL) was used for detection of the Fc portion of the fusion proteins.

[2] = biological target: T2, commercially available recombinant CD16B (Allele NA-2; BSA free; RD Systems) (UniProt O75015 17-200, limits assumed); assay: ELISA, recombinant CD16B coated at 80 nM
T2 construct: also called recombinant CD16B-Fc
T2 sequence (O75015 17-200 N65S limits assumed): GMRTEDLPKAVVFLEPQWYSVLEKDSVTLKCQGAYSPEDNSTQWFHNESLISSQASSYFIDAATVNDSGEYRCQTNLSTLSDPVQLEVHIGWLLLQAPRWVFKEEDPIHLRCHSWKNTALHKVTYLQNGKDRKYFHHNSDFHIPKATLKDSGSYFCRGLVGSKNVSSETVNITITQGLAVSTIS
Protocol: (§1) FIG. 3: ELISA on recombinant CD16A-Fc and CD16B. Recombinant CD16A-Fc and CD16B proteins were coated at 80 nM in 0.1 M NaHCO₃, pH 8.8. Wells were blocked with PBS, 2% skimmed milk. The binding of the scFv to the recombinant proteins and to gp34-Fc (negative control) was detected using an anti-c-Myc-HRP conjugate (10 μg/ml). […] Coated recombinant CD16B was directly detected by staining with an anti-His-HRP (1 μg/mL) and coating of the Fc-Fusion proteins was tested by an anti-human IgG-HRP conjugate (0.5 μg/mL). As HRP-substrate, 50 μL of TMB were used. After termination of the reaction with 50 μL 0.5 M H₂SO₄, absorbance was measured at 450 nm.
(§2) In order to generate further supporting data concerning the CD16A specificity of the scFvs, an ELISA was performed using the CD16A-Fc fusion protein (Example 1) and commercially available recombinant CD16B-Fc (Allele NA-2; BSA free; RD Systems). A gp34-Fc fusion protein was used as a negative control. The recombinant proteins were coated overnight at a concentration of 80 nM in 100 mM NaHCO₃ at pH 8.8.
(§3) Detection of scFv bound to the recombinant proteins was carried out by using an anti-c-myc-HRP conjugate (10 μg/ml). […] Binding to the recombinant CD16B was tested by directly staining with anti-His-HRP (1 μg/mL) and binding to the Fc-Fusion proteins was tested by an anti-human IgG-HRP conjugate (0.15 μg/mL).

[3] = biological target: T3, human CD16A-Fc^48R/158V fusion protein (human, UniProt P08637 17-208, limits assumed); assay: SPR, steady state analysis (column Keq)
T3 construct: Secreted soluble fusion made in HEK-293 cells; also called CD16-Fc; CD16A Fc-fusion protein; not shown: Fc portion of human IgG1
T3 sequence (P08637 17-208 L66R/F176V limits assumed): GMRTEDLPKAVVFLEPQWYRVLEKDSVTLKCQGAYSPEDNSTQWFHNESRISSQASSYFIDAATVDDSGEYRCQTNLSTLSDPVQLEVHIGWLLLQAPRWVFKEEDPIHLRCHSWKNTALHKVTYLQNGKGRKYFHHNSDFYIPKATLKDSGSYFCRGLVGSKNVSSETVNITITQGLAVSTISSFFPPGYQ
Protocol: (§4) The affinity constants (KD values) of the scFv were determined by SPR using the BIAcore 2000 biosensor system (Amersham-Pharmacia). The CD16A-Fc fusion protein and BSA used as a negative control were immobilized on the carboxymethyldextran-coated sensor chip CM5 using conventional NHS/EDC chemistry for the amine coupling procedure (BIAcore). Purified scFvs were diluted in HBS-EP buffer (BIAcore, Uppsala, Sweden). Binding data was generated by passing varying concentrations of the scFv antibodies (100 nM, 200 nM, 400 nM, 800 nM and 1600 nM) over the immobilized antigen. […] All SPR measurements were performed at a constant flow rate of 20 μL/min in HBS-EP buffer at 25° C. Each injected sample (100 μl) was in contact with antigen for 5 minutes. The dissociation was followed for 30 minutes. After each cycle, the surface of the sensor chip was flushed with HBS-EP buffer. Signals from the control channel coated with BSA were automatically subtracted. Kinetic constants were calculated according to the 1/1 Langmuir binding model using the BIAevaluation version 3.0 software (BIAcore).

[4] = biological target: T3, human CD16A-Fc^48R/158V fusion protein; assay: SPR, BIAcore 2000, CD16A-Fc immobilized on CM5, koff/kon
Protocol: as §4

[5] = biological target: T3, human CD16A-Fc^48R/158V fusion protein; assay: SPR, BIAcore 2000, CD16A-Fc immobilized on CM5, 1:1 Langmuir
Protocol: as §4

Streptavidin = biological target: T4, Streptavidin (UniProt P22629 37-163, limits assumed); assay: ELISA on coated streptavidin; periplasmic extract, anti-Penta His-HRP
T4 construct: also called streptavidin alone
T4 sequence (P22629 37-163 limits assumed): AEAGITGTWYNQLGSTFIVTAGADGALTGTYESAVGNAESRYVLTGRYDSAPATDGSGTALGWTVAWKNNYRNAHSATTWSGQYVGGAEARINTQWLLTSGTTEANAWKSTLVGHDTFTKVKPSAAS

[6] = biological target: T5, native CD16B on human polymorphonuclear cells (neutrophilic granulocytes) (human, UniProt O75015 17-200); assay: flow cytometry on freshly isolated PMN; scFv, anti-(His)6 MAb, FITC goat anti-mouse IgG; MFI minus secondary reagents alone
T5 construct: whole, on cells; also called PMN; CD16B-positive granulocytes
T5 sequence (O75015 17-200): as the sequence (O75015 17-200 N65S limits assumed) above, with S49N counted along it
Protocol: Polymorphonuclear cells (PMN) and natural killer (NK) cells were isolated from peripheral blood from a healthy donor and used for flow cytometric staining and analysis. […] All scFv were used at a concentration of 50 μg/mL and were detected with 10 μg/mL anti-(His)₆ followed by 15 μg/mL FITC-conjugated goat anti-mouse IgG. The mean fluorescence intensities obtained from flow cytometric analysis were corrected by subtracting the fluorescence values from cell stainings with the secondary reagents alone and were plotted in the diagram.
Enrichment of NK cells was performed by negative selection as described above.

[7] = biological target: T6, human CD16B (NA-2 allele) on stably transfected HEK-293 cells (293/CD16B) (human, UniProt O75015 17-200); assay: flow cytometry on 293/CD16B cells; scFv, anti-hexa His MAb 13/45/31-2, FITC goat anti-mouse IgG; MFI minus secondary reagents alone
T6 construct: whole, on cells
T6 sequence (O75015 17-200 N65S): as the sequence (O75015 17-200 N65S limits assumed) above
Protocol: (§5) The mean fluorescence intensities obtained from flow cytometric analysis were corrected by subtracting the fluorescence values from cell stainings with the secondary reagents alone, and plotted in the diagram.
(§6) For flow cytometric analysis, the following cell lines were used: BW and BW/CD16A transfectants were cultured as described previously. […] The transient transfections were performed using the calcium phosphate method as described in Example 1 and were used for flow cytometric staining and analysis two days after transient transfection. Flow cytometric staining and analysis was performed as essentially described before.

[8] = biological target: T7, NKp46 extracellular domain fused to zeta chain, on transiently transfected HEK-293 cells (293/NKp46) (human, UniProt O76036 22-258; P20963 31-164); assay: flow cytometry on 293/NKp46 cells; scFv, anti-hexa His MAb 13/45/31-2, FITC goat anti-mouse IgG; MFI minus secondary reagents alone
T7 construct: extracellular domain;domain: transmembrane and cytoplasmic domain; On the cell surface; also called NKp46-transfectants; pcDNA3-NKp46-zeta
T7 sequence (O76036 other isoform, or with tags, fused parts or gaps limits assumed): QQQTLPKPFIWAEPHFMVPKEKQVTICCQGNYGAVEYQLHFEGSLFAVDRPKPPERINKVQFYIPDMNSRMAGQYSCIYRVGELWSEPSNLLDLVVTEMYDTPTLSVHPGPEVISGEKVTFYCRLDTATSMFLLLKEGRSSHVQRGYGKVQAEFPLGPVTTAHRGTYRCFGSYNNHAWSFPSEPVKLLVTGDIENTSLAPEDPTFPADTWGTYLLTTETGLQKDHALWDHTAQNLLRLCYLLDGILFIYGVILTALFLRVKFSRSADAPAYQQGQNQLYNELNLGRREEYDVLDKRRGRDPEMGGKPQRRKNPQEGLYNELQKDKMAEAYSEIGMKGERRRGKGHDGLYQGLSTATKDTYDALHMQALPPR
Protocol: as §5, §6

[9] = biological target: T3, human CD16A-Fc^48R/158V fusion protein; assay: surface plasmon resonance
[10] = biological target: T3, human CD16A-Fc^48R/158V fusion protein; assay: SPR, kinetic and steady state analysis
Protocol: as §4

[11] = biological target: T3, human CD16A-Fc^48R/158V fusion protein; assay: SPR, BIAcore 2000, antigen immobilized
Protocol: as §4

[12] = biological target: T3, human CD16A-Fc^48R/158V fusion protein; assay: SPR, BIAcore 2000, antigen immobilized, koff/kon
Protocol: as §4

CD16B-Fc^SH = biological target: T8, CD16B-Fc^SH (human, UniProt O75015 17-200); assay: ELISA on 200 ng coated antigen; scFv, anti-His-HRP (1 µg/ml)
T8 construct: extracellular domain; not shown: Fc region carried by the pSEC plasmid
T8 sequence (O75015 17-200 N65S/A78D): as the sequence (O75015 17-200 N65S limits assumed) above, with A62D counted along it
Protocol: (§7) FIG. 7: ELISA on different CD16 isoforms. […] An anti-NKp46 scFv used as a primary antibody acted as a negative control.
(§8) Detection of scFv bound to the recombinant proteins was carried out using an anti-His-HRP conjugate (1 μg/ml).

CD16B-Fc^NA1 = biological target: T9, CD16B-Fc^NA1 (human, UniProt O75015 17-200); assay: as above
T9 construct: extracellular domain; not shown: Fc region carried by the pSEC plasmid
T9 sequence (O75015 other isoform, or with tags, fused parts or gaps): as the sequence (O75015 17-200 N65S limits assumed) above, with S20R, S49N, N66D, I90V counted along it
Protocol: as §7, §8

CD16B-Fc^NA2 = biological target: T10, CD16B-Fc^NA2 (human, UniProt O75015 17-200); assay: as above
T10 construct: extracellular domain; not shown: Fc region carried by the pSEC plasmid
T10 sequence (O75015 17-200 N65S): as the sequence (O75015 17-200 N65S limits assumed) above
Protocol: as §7, §8

NKp46-Fc [13] = biological target: T1, NKp46-Fc; assay: as above
Protocol: as §7, §8

[14] = biological target: T2, commercially available recombinant …; assay: ELISA on recombinant CD16B coated at 80 nM; scFv detected with anti-c-Myc-HRP (10 µg/ml)
Protocol: as §1, §2, §3

| Binder | binding result (NKp46-Fc [1]) | binding result [2] | Kd [3] | Kd [4] | koff [5] | kon [5] | binding result (Streptavidin) | binding result [6] | binding result [7] | binding result [8] | Kd [9] | fold improvement of affinity over parental clone 50NI [10] | koff [11] | kon [11] | Kd [12] | binding result (CD16B-Fc^SH) | binding result (CD16B-Fc^NA1) | binding result (CD16B-Fc^NA2) | binding result (NKp46-Fc [13]) | binding result [14] |
| --- | --- | --- | --- | --- | --- | --- | --- | --- | --- | --- | --- | --- | --- | --- | --- | --- | --- | --- | --- | --- |
| B1 | no binding (tested: 4 µg/ml) | no binding | 2560 nM | 1230 nM | 0.0217 s⁻¹ | 17600 M⁻¹ s⁻¹ | no binding | no binding (tested: 50 µg/mL) | no binding (tested: 50 µg/mL) | no binding (tested: 50 µg/mL) | – | – | – | – | – | – | – | – | – | – |
| B2 | – | – | 203 nM | 113 nM | 0.0063 s⁻¹ | 56000 M⁻¹ s⁻¹ | – | no binding (tested: 50 µg/mL) | no binding (tested: 50 µg/mL) | no binding (tested: 50 µg/mL) | ~50 nM | > 20 fold | 0.00342 s⁻¹ | 55400 M⁻¹ s⁻¹ | 61.7 nM | no binding (tested: 4 µg/ml) | no binding (tested: 4 µg/ml) | no binding (tested: 4 µg/ml) | no binding (tested: 4 µg/ml) | no binding (tested: not given) |
